This passage reports EC50 results from patent US20230331868A1.

The labels stand for the following.
B1: Humanized 3F1 VL1,VH2 (antibody, V domains shown)
VH: QVQLVQSGAEVKKPGASVKISCKASGYTFTDHAIHWVRQAPGQGLEWIGYISPGNGDIKYNEKFKDRVTLTADKSSSTASMHLRSLRSDDTAVYFCKRSLLALDYWGQGTLVTVSS
VL: DIQMTQSPSSLSASVGDRVTITCKASQDVGTNIAWYQQKPGKAPKVLIYSASTRHTGVPSRFSGSGSGTDFTLTISSLQPEDFATYFCQQYSSFPLTFGQGTKVEIK
B2: Humanized 2G12-2B2 VL0,VH3 (antibody, V domains shown)
VH: EVQLVQSGAEVKKPGASVKVSCKASGYTFTDHAIHWVRQAPGQGLEWMGYFSPGNDDIKYNEKFRGRVTMTADKSSSTAYMELRSLRSDDTAVYFCKRSLSTPYWGQGTLVTVSS
VL: DIVMTQSPDSLAVSLGERATINCKSSQSLLNRGNHKNYLTWYQQKPGQPPKLLIYWASTRESGVPDRFSGSGSGTDFTLTISSLQAEDVAVYYCQNDYTYPYTFGQGTKVEIK
B3: Humanized 3F1 VL1,VH4 (antibody, V domains shown)
VH: B1 VH with Q1E, N55S
VL: B1 VL
B4: Humanized 3F1 VL1,VH3 (antibody, V domains shown)
VH: B1 VH with Q1E, I20V, I48M, N55S, L70M, S80Y, H82Q
VL: B1 VL
B5: Humanized 2G12-2B2 VL0,VH1 (antibody, V domains shown)
VH: B2 VH with E1Q
VL: B2 VL
B6: Humanized 2G12-2B2 VL0,VH2 (antibody, V domains shown)
VH: B2 VH with E1Q, V20I, M48I, M70L
VL: B2 VL
B7: Humanized 2G12-2B2 VL2,VH1 (antibody, V domains shown)
VH: B2 VH with E1Q
VL: B2 VL with A19V, I21M, N22S

Substitutions are numbered along the chain they refer to.

The target of one assay is bovine submaxillary mucin (bovine). Kind of assay: ELISA on BSM-coated wells; antibody from one liter production. On the technique in general: ELISA stands for enzyme-linked immunosorbent assay.
For orientation: EC50 means the midpoint of the concentration-response curve. In turn, B1 had an EC50 of 0.57 nM. In turn, B2 returned an EC50 of 0.8 nM.

For a further assay the target is unchanged. The experiment in a line: ELISA on BSM-coated wells; periodate-sensitive signal.
Molecule B1 returned an EC50 of 1.4 nM. Still for that read-out and setting: to B3 belongs 6.5 nM. B4 had an EC50 of 12.2 nM. The same measure, in the same setting: to B2 belongs 4.2 nM. Turning to B5, the EC50 is 4.5 nM.

B6 yielded an EC50 of 1.8 nM.

Take B7: the EC50 turned out to be 4.4 nM.
